Assay results: patent US20160193329A1

Biological target: Toll-like Receptor 5 (human) (UniProt O60602)
Experiment: cell-based or functional assay

B1: STF2.HA1 (SI) (protein)
chain: AQVINTNSLSLLTQNNLNKSQSALGTAIERLSSGLRINSAKDDAAGQAIANRFTANIKGLTQASRNANDGISIAQTTEGALNEINNNLQRVRELAVQSANSTNSQSDLDSIQAEITQRLNEIDRVSGQTQFNGVKVLAQDNTLTIQVGANDGETIDIDLKQINSQTLGLDSLNVQKAYDVKDTAVTTKAYANNGTTLDVSGLDDAAIKAATGGTNGTASVTGGAVKFDADNNKYFVTIGGFTGADAAKNGDYEVNVATDGTVTLAAGATKTTMPAGATTKTEVQELKDTPAVVSADAKNALIAGGVDATDANGAELVKMSYTDKNGKTIEGGYALKAGDKYYAADYDEATGAIKAKTTSYTAADGTTKTAANQLGGVDGKTEVVTIDGKTYNASKAAGHDFKAQPELAEAAAKTTENPLQKIDAALAQVDALRSDLGAVQNRFNSAITNLGNTVNNLSEARSRIEDSDYATEVSNMSRAQILQQAGTSVLAQANQVPQNVLSLLAKGIAPLQLGNCSVAGWILGNPECELLISRESWSYIVEKPNPENGTCYPGHFADYEELREQLSSVSSFERFEIFPKESSWPNHTTTGVSASCSHNGESSFYKNLLWLTGKNGLYPNLSKSYANNKEKEVLVLWGVHHPPNIGDQRALYHKENAYVSVVSSHYSRKFTPEIAKRPKVRDQEGRINYYWTLLEPGDTIIFEANGNLIAPRYAFALSRGFGSGIINS
  IL-8, Mean Result (ng/nL), HEK 293 cells, lot 1 (reference), well 1: 635 ng/nL
  IL-8, Mean Result (ng/nL), HEK 293 cells, lot 1 (reference), well 2: 797
  IL-8, Mean Result (ng/nL), HEK 293 cells, lot 1 (reference), well 3: 1070
  IL-8, Mean Result (ng/nL), HEK 293 cells, lot 1 (reference), well 4: 1230
  IL-8, Mean Result (ng/nL), HEK 293 cells, lot 1 (reference), well 5: 1360
  IL-8, Mean Result (ng/nL), HEK 293 cells, lot 1 (reference), well 6: 1540
  IL-8, Mean Result (ng/nL), HEK 293 cells, lot 2, well 1: 1460 ng/nL
  IL-8, Mean Result (ng/nL), HEK 293 cells, lot 2, well 2: 1590
  IL-8, Mean Result (ng/nL), HEK 293 cells, lot 2, well 3: 1610
  IL-8, Mean Result (ng/nL), HEK 293 cells, lot 2, well 4: 1300
  IL-8, Mean Result (ng/nL), HEK 293 cells, lot 2, well 5: 1380
  IL-8, Mean Result (ng/nL), HEK 293 cells, lot 2, well 6: 1090
  IL-8, Mean of all wells, HEK 293 cells, lot 1 (reference): 1110
  IL-8, Mean of all wells, HEK 293 cells, lot 2: 1410
  T/C ratio (IL-8 of lot 2 against the reference lot 1 at about 278 ng/ml): 1.3
